Measured values published in paper PMC5893371 (Nature medicine, 2018).
Where two headings read alike, the source gives them in different places. No end group written: not given here.

Legend:
[1] = target: recombinant PfCSP (rPfCSP), Plasmodium falciparum circumsporozoite protein residues 21-375 (Plasmodium falciparum 3D7 (clone of …, UniProt Q7K740)); experiment: ITC
PfCSP peptide 20 [2] = target: T1, PfCSP peptide 20 (Plasmodium falciparum); experiment: crystal structure
T1 chain: PADGNPDPNANPNVD

PfCSP peptide 25 [3] = target: T2, PfCSP peptide 25 (Plasmodium falciparum, UniProt Q7K740, position 102 (from Pro to Val)); experiment: crystal structure
T2 chain: NVDPNANPNVDPNAN

PfCSP peptide 25 [4] = target: T2, PfCSP peptide 25; experiment: ELISA
biotinylated peptide 21 = target: T3, biotinylated peptide 21 (Plasmodium falciparum, also: biotin, position not given here); experiment: BLI
T3 chain: NPDPNANPNVDPNAN

PfCSP peptide 20 [5] = target: T1, PfCSP peptide 20; experiment: crystal structure
PfCSP peptide 25 [6] = target: T2, PfCSP peptide 25; experiment: crystal structure

B1: mAb CIS42 (antibody, V domains shown)
VH: QVQLVQSGSELKKPGASVKVSCKTSGYTFTTYAMNWVRQAPGQGLEWMGWINTNTGNPTYAPGFTGRFVFSFDTSVSTAYLQISSLKAEDTAVYYCARVYSYGVPFDYWGQGTLVTVSS
VL: QSVLTQPASVSGSPGQSITISCTATSSNVGSFNLVSWYQHHPGKAPKLIIHEVSKRPSGASNRFSGSKSGNTASLTISGLQAEDEADYYCCSYVGSDTWVFGGGTKLTV
[1]
  Kd: 51 nM
  stoichiometry N: 7

B2: CIS42 Fab (Fab, V domains shown)
VH: QVQLVQSGSELKKPGASVKVSCKTSGYTFTTYAMNWVRQAPGQGLEWMGWINTNTGNPTYAPGFTGRFVFSFDTSVSTAYLQISSLKAEDTAVYYCARVYSYGVPFDYWGQGTLVTVSS
VL: QSVLTQPASVSGSPGQSITISCTATSSNVGSFNLVSWYQHHPGKAPKLIIHEVSKRPSGASNRFSGSKSGNTASLTISGLQAEDEADYYCCSYVGSDTWVFGGGTKLTV
PfCSP peptide 20 [2]
  binding result: binds
PfCSP peptide 25 [3]
  binding result: binds

B3: mAb CIS43 (antibody, V domains shown)
VH: QVQLVQSGAEVKKPGASVKVSCKASGYTFTSYAIHWVRQAPGQRLEWMGWIKAGNGNTRYSQKFQDRVTITRDTSTTTAYMELSSLRSEDTAVYYCALLTVLTPDDAFDIWGQGTMVTVSS
VL: not shown
PfCSP peptide 25 [4]
  binding result: binds
[1]
  KD of the first binding event: 7.9 nM
  KD of the second binding event: 42 nM
Biotinylated peptide 21
  Kd: < 0.001 nM

B4: CIS43 Fab (Fab, V domains shown)
VH: QVQLVQSGAEVKKPGASVKVSCKASGYTFTSYAIHWVRQAPGQRLEWMGWIKAGNGNTRYSQKFQDRVTITRDTSTTTAYMELSSLRSEDTAVYYCALLTVLTPDDAFDIWGQGTMVTVSS
VL: not shown
PfCSP peptide 20 [5]
  binding result: binds
PfCSP peptide 25 [6]
  binding result: binds
[1]
  KD of the first binding event: 16 nM
  KD of the second binding event: 250 nM
